Common to all, as to assay: EMSA
Details in all cases: 10 mM Tris-HCl pH 8, 50 mM KCl, 0.5 mM EDTA, 10% glycerol, 0.5 mM DTT, 10 nM DNA, 25°C 25 min; 8% PAGE in 0.5x TBE
In general terms: In EMSA bound probe runs differently from free probe, usually more slowly.

For data set [1], the target named is T1, SydR' C16S&C114S (SS) C16S;C114S (Sinorhizobium meliloti Rm2011) (UniProt Q92XY2).
T1 sequence: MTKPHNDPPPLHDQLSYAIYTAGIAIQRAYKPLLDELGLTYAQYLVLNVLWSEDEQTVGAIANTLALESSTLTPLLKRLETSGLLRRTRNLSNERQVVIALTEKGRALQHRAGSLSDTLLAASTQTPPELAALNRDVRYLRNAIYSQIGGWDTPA

The target of data set [2] is T2, SydR' C114S (CS) C114S (Sinorhizobium meliloti Rm2011) (UniProt Q92XY2).
T2 sequence: T1 sequence with S16C

Data set [3] concerns the target T3, SydR' C16S (SC) C16S (Sinorhizobium meliloti Rm2011) (UniProt Q92XY2).
T3 sequence: T1 sequence with S114C

Numbering of substitutions follows the chain as printed.

As to “TCTGGGCTCCTTTGCGCACCAATATAATCAAGATTACCGCGAAAACCAATATCGCGATAAGAGATATGTTGACGAGCAGTTCAATATCTGACAACTTAAATATATCGCGATAACAGTTATCGCTATCAACGAAAGGAAAAAGCC (double strand) [sydR-SMa2023 intergenic region, 144 bp]”, the binding entry in data set [1] is given as “binds more weakly”; in data set [2] it was “binds”; in data set [3], “binds more weakly”.

The record behind these values is publication PMC11633110.
